{"source": "patent US20060240570A1", "about": "(AXIS SHIELD ASA, published 2006)", "binders": {"B1": {"name": "phagemid CS1-29p, displayed peptide CSGLYPWDYFMCS (peptide)", "peptide": "CSGLYPWDYFMCS", "modifications": "disulfide 1-12 (inferred); also: displayed on phagemid"}, "B2": {"name": "monoclonal antibody TC2 (antibody, V domains shown)", "VH": "QVQLKQSGPGLLQPSQSLSITCTVSGFSLTYYGVHWVRQSPVKGLEWLGVIWSGGDTDYDTTFISRLSISKDNSKGQVFFKMTSLQTDDTAIYYCARGRTYGIHFDYWGQGTTLTVSS", "VL": "DIVMSQSPSSLAVSVGEKVTMSCKSSQSLFNSRTRKNYLAWYQQKPGQSPKVLIYWASTRESGVPDRFTGSGSGTDFTLTISSVQAEDLAIYYCKQFYDLWTFGGGTKLEIKR", "notes": "Mouse IgG1, ECACC 02110742; also called mAb TC2"}}, "key": {"monoclonal antibody 3C4": {"biological_target": "T1, monoclonal antibody 3C4", "T1 construct": "Mouse IgG1, ECACC 02110741; also called mAb 3C4; 3C4 (3CY)", "T1 sequence (VH, as listed by the source, chain 1 of 2)": "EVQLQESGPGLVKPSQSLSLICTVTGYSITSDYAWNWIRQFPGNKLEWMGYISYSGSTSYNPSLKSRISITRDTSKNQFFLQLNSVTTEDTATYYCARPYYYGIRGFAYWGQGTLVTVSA", "T1 sequence (VL, as listed by the source, chain 2 of 2)": "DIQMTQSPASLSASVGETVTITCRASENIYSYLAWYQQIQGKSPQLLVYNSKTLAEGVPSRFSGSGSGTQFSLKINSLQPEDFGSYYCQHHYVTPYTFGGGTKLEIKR", "assay": "phage ELISA, 10^9 phagemid, wells coated with mAb 3C4", "method": "Microtitre plates were coated with 100 μL, 1 μg/mL mAb 3C4 or unrelated control antibody in PBS over night at 4 C. Remaining binding sites were blocked with 20 mg/mL bovine serum albumin (BSA) in PBS for 1 h. Some wells were only coated with BSA. Monoclonal packaged phagemids were added at a concentration of 10¹⁰ to 10⁸ cfu per well in PBS and incubated for 1 h. Preparations of packaged phagemids were centrifuged to remove aggregates. Wells were washed 6 times with PBS containing 0.1% Tween-20 and 3 times with PBS. For detection of bound phages 100 μL of horse-radish peroxidase (HRP) conjugated […] antibody (e.g. Pharmacia) diluted 1/5000 in PBS was added to each well and incubated for 1 h at ambient temperature. ELISA plates were washed 5 times with PBS containing 0.1%\nTween-20 and 3 times with PBS. The chromogenic substrate o-Phenyldiamine in citric acid, pH 4.0 supplemented with H₂O₂ was added and the color generating reaction was stopped after 2-5 min by addition of […]."}, "[1]": {"biological_target": "T2, human holotranscobalamin (holoTC) (human, UniProt P20062 19-427, cobalamin bound (non-covalent complex))", "T2 construct": "Recombinant human holoTC in the SPR work; also called holo-TCII", "T2 chain": "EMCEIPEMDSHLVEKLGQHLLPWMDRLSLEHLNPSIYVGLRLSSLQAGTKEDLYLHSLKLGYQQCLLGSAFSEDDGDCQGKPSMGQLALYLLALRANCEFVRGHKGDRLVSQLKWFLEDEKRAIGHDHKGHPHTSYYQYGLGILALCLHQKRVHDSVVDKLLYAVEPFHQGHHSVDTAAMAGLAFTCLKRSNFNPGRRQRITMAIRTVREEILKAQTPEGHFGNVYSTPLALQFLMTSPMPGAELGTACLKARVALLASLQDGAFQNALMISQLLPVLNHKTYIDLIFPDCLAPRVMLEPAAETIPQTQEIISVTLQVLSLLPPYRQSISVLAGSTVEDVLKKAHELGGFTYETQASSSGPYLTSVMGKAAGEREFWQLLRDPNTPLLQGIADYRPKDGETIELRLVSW", "assay": "SPR (Biacore); holoTC against apoTC"}, "[2]": {"biological_target": "T3, human TC with the common polymorphism P259R (human, UniProt P20062 19-427)", "T3 sequence": "T2 chain with P241R", "assay": "method not detailed"}}, "note": "Substitutions are numbered along the chain they refer to. Positions of bridges follow the written chain, without caps; N, C: chain ends. No end group written: not given here.", "data": [{"binder": "B1", "values": [{"measurement": "ELISA (absorbance units)", "setting": "monoclonal antibody 3C4", "result": 0.136, "unit": "absorbance units"}]}, {"binder": "B2", "values": [{"measurement": "holo/apo Specificity (-fold)", "setting": "[1]", "result": 1, "unit": "fold"}, {"measurement": "binding result", "setting": "[2]", "result": "binds"}]}]}
